In patent US20200024330A1:

Assays:
Test in all cases: cell-based or functional assay
[1] = target: HIV-1 Env of isolate 92UG001 (subtype D), on pseudovirus (HIV-1)
[2] = target: HIV-1 Env of isolate 92UG031 (pseudovirus) (HIV-1)
[3] = target: HIV-1 Env of isolate 94 KE 105 (pseudovirus) (HIV-1)
[4] = target: HIV-1 Env of isolate APV_17 (HIV-1)
[5] = target: HIV-1 Env of isolate MG RM-A-008 (pseudovirus) (HIV-1)
[6] = target: HIV-1 Env of isolate MGRM-AE-002 (pseudovirus) (HIV-1)
[7] = target: HIV-1 Env of isolate MGRM-D-004 (subtype D), on pseudovirus (HIV-1)
[8] = target: HIV-1 MGRM-AG-005 Env (pseudovirus) (HIV-1)
[9] = target: HIV-1 Env of isolate QH0692.42 (subtype B) (HIV-1)
[10] = target: HIV-1 Env of isolate SF162 (subtype B) (HIV-1) (UniProt P19550)
[11] = target: HIV-1 envelope glycoprotein (Env) of isolate APV_13, on pseudovirus (HIV-1)
[12] = target: HIV-1 envelope glycoprotein (Env) of isolate MGRM-Chronic-B-011, on pseudovirus (HIV-1)
[13] = target: HIV-1 envelope glycoprotein (Env) of isolate MGRM-Chronic-B-020, on pseudovirus (HIV-1)
[14] = target: HIV-1 JR-CSF Env I423A (HIV-1 (isolate JR-CSF)) (UniProt P20871)
[15] = target: HIV-1 Env of isolate CAP45 (HIV-1)
[16] = target: HIV-1 Env of isolate DU156 (HIV-1)
[17] = target: HIV-1 Env of isolate DU422 (HIV-1)
[18] = target: HIV-1 Env of isolate ZM233 (HIV-1)
[19] = target: HIV-1 92RW020 Env (clade A pseudovirus) (HIV-1)
[20] = target: HIV-1 93UG077 Env (clade A pseudovirus) (HIV-1)
[21] = target: HIV-1 APV13 Env (clade B pseudovirus) (HIV-1)
[22] = target: HIV-1 JRCSF Env (clade B pseudovirus) (HIV-1) (UniProt P20871)
[23] = target: HIV-1 JRFL Env (clade B pseudovirus) (HIV-1)
[24] = target: HIV-1 MGRM-C-027 Env (clade C pseudovirus) (HIV-1)
[25] = target: HIV-1 MGRM-C-028 Env (clade C pseudovirus) (HIV-1)
[26] = target: HIV-1 MGRM-D-001 Env (clade D pseudovirus) (HIV-1)
[27] = target: HIV-1 Env of isolate 92RW020 (clade A) (HIV-1)
[28] = target: HIV-1 Env of isolate 92TH021 (clade AE) (HIV-1)
[29] = target: HIV-1 Env of isolate 93IN905 (clade C) (HIV-1)
[30] = target: HIV-1 Env of isolate 94UG103 (clade A) (HIV-1)
[31] = target: HIV-1 Env of isolate APV17 (clade B) (HIV-1)
[32] = target: HIV-1 Env of isolate JRCSF (clade B) (HIV-1) (UniProt P20871)
[33] = target: HIV-1 Env of isolate JRFL (clade B) (HIV-1)
[34] = target: HIV-1 Env of isolate MGRM-A-010 (clade A) (HIV-1)

1443_C16 (PG16) (TCN-116) (antibody), sequence (VH): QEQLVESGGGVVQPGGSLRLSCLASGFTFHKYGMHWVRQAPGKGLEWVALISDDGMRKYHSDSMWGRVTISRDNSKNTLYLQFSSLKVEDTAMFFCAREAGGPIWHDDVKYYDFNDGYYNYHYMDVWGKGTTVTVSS
1443_C16 (PG16) (TCN-116) (antibody), sequence (VL): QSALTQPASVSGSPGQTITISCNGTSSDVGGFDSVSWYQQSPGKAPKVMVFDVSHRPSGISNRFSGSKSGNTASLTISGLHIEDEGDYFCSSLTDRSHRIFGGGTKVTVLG

For VRC01 (antibody), the IC50, pseudovirus neutralization [1] was 1.16 µg/mL, the IC50 (µg/mL), pseudovirus neutralization [2] was 0.469 µg/mL and the IC50 (µg/mL), pseudovirus neutralization [3] was 0.499 µg/mL. The IC50 [4] was 0.477 µg/mL, the IC50 (µg/mL), pseudovirus neutralization [5] was 0.303 µg/mL and the IC50 (µg/mL), pseudovirus neutralization [6] was 0.217 µg/mL. The IC50, pseudovirus neutralization [7] was 1.25 µg/mL.
In the case of 5141_B17 (PGT-126) (antibody), the IC50 [8] is reported as 1.35 µg/mL, the IC80 [8] is reported as over 10 µg/mL and the IC90 [8] is reported as over 10 µg/mL. The IC95 [8] was over 10 µg/mL.
In the case of PGV04 (antibody), the IC50 (µg/mL), pseudovirus neutralization [9] is reported as 1.9 µg/mL, the IC50 (µg/mL), pseudovirus neutralization [10] is reported as 0.0028 µg/mL and the IC50, pseudovirus neutralization [11] is reported as 1.23 µg/mL. For the same substance, the IC50, pseudovirus neutralization [12] was 0.497 µg/mL and the IC50, pseudovirus neutralization [13] was 1.26 µg/mL.
PGT-121 (antibody) gave a Fold IC50 increase relative to wild-type [14] of 3.3 fold.
Work on 1443_C16 (PG16) (TCN-116) (antibody) yielded an IC50, pseudovirus neutralization (TZM-bl) [15] of under 0.01 µg/mL, an IC50, pseudovirus neutralization (TZM-bl) [16] of under 0.01 µg/mL and an IC50, pseudovirus neutralization (TZM-bl) [17] of 0.59 µg/mL. The IC50, pseudovirus neutralization (TZM-bl) [18] was under 0.01 µg/mL.
4877_D15 (PGT-122) (antibody) showed a Neutralization by PGT-122, IC50 [19] of 0.0072 µg/mL, a Neutralization by PGT-122, IC80 [19] of 0.0407 µg/mL and a Neutralization by PGT-122, IC90 [19] of 0.113 µg/mL. For the same substance, the Neutralization by PGT-122, IC95 [19] was 0.289 µg/mL, the Neutralization by PGT-122, IC50 [20] was 0.191 µg/mL and the Neutralization by PGT-122, IC80 [20] was 0.931 µg/mL. It also gave a Neutralization by PGT-122, IC90 [20] of 2.1 µg/mL, a Neutralization by PGT-122, IC95 [20] of 3.88 µg/mL and a Neutralization by PGT-122, IC50 [21] of 0.992 µg/mL. The Neutralization by PGT-122, IC80 [21] was 4.14 µg/mL, the Neutralization by PGT-122, IC90 [21] was 8.6 µg/mL and the Neutralization by PGT-122, IC95 [21] was over 10 µg/mL. It also gave a Neutralization by PGT-122, IC50 [22] of 0.0727 µg/mL, a Neutralization by PGT-122, IC80 [22] of 0.245 µg/mL and a Neutralization by PGT-122, IC90 [22] of 0.494 µg/mL. For the same substance, the Neutralization by PGT-122, IC95 [22] was 0.926 µg/mL, the Neutralization by PGT-122, IC50 [23] was 0.0471 µg/mL and the Neutralization by PGT-122, IC80 [23] was 0.166 µg/mL. The Neutralization by PGT-122, IC90 [23] was 0.342 µg/mL, the Neutralization by PGT-122, IC95 [23] was 0.659 µg/mL and the Neutralization by PGT-122, IC50 [24] was 0.0388 µg/mL. The Neutralization by PGT-122, IC80 [24] was 0.499 µg/mL, the Neutralization by PGT-122, IC90 [24] was over 10 µg/mL and the Neutralization by PGT-122, IC95 [24] was over 10 µg/mL. For the same substance, the Neutralization by PGT-122, IC50 [25] was 2.06 µg/mL, the Neutralization by PGT-122, IC80 [25] was over 10 µg/mL and the Neutralization by PGT-122, IC90 [25] was over 10 µg/mL. For the same substance, the Neutralization by PGT-122, IC95 [25] was over 10 µg/mL, the Neutralization by PGT-122, IC50 [26] was 0.867 µg/mL and the Neutralization by PGT-122, IC80 [26] was 4.48 µg/mL. For the same substance, the Neutralization by PGT-122, IC90 [26] was over 10 µg/mL and the Neutralization by PGT-122, IC95 [26] was over 10 µg/mL.
5147_N06 (PGT-130) (antibody) was tested, and the neutralization IC50 [27] was 0.014 µg/mL, the neutralization IC80 [27] was 0.508 µg/mL and the neutralization IC90 [27] was 3.68 µg/mL. For the same substance, the neutralization IC95 [27] was over 10 µg/mL, the neutralization IC50 [28] was 0.0082 µg/mL and the neutralization IC80 [28] was 0.0261 µg/mL. It also gave a neutralization IC90 [28] of 0.0513 µg/mL, a neutralization IC95 [28] of 0.0963 µg/mL and a neutralization IC50 [29] of 0.0182 µg/mL. It also gave a neutralization IC80 [29] of 0.272 µg/mL, a neutralization IC90 [29] of 1.31 µg/mL and a neutralization IC95 [29] of 5.48 µg/mL. It also gave a neutralization IC50 [30] of 0.635 µg/mL, a neutralization IC80 [30] of over 10 µg/mL and a neutralization IC90 [30] of over 10 µg/mL. The neutralization IC95 [30] was over 10 µg/mL, the neutralization IC50 [31] was over 10 µg/mL and the neutralization IC80 [31] was over 10 µg/mL. It also gave a neutralization IC90 [31] of over 10 µg/mL, a neutralization IC95 [31] of over 10 µg/mL and a neutralization IC50 [32] of 0.0089 µg/mL. For the same substance, the neutralization IC80 [32] was 0.0317 µg/mL, the neutralization IC90 [32] was 0.0669 µg/mL and the neutralization IC95 [32] was 0.134 µg/mL. The neutralization IC50 [33] was 0.0346 µg/mL, the neutralization IC80 [33] was 0.751 µg/mL and the neutralization IC90 [33] was 5.72 µg/mL. For the same substance, the neutralization IC95 [33] was over 10 µg/mL, the neutralization IC50 [34] was 0.0054 µg/mL and the neutralization IC80 [34] was 0.0251 µg/mL. It also gave a neutralization IC90 [34] of 0.0643 µg/mL and a neutralization IC95 [34] of 0.164 µg/mL.
